Reference: publication PMC4876393, “Structure of the Dictyostelium Myosin-II Heavy Chain Kinase A (MHCK-A) α-kinase domain apoenzyme reveals a novel autoinhibited conformation” (Scientific Reports, 2016)
Non-standard residues stand in square brackets, D forms with d. No end group written: not given here. pT = C[C@@H](OP(=O)(O)O)[C@H](N)C(=O)O

Columns and labels:
[1] = test system: T1, Nc1ncnc2c1ncn2[C@@H]1O[C@H](COP(=O)(O)OP(=O)(O)OP(=O)(O)O)[C@@H](O)[C@H]1O; test: Radiometric kinase assay with [γ-32P]ATP and 20 μM myelin basic protein as phosphate acceptor (P81 paper) at 22 °C in 2 mM MgCl2, 1 mM dithiothreitol, 20 mM TES, pH 7.0.; type: biochemical
T1 construct: A-CAT: alpha-kinase domain and Thr825 autophosphorylation site of MHCK-A; expressed in E. coli
Description: (§1) Assays were carried out at 22 °C in a buffer containing 2 mM MgCl2, 1 mM dithiothreitol and 20 mM TES, pH 7.0. Kinase assays contained 20 μM myelin basic protein (MBP), 0.5–2 μM A-CAT and 200 μM [γ-^32P]ATP (specific activity 100 cpm/pmol). At each time point, 20 μl aliquots of the reaction mixture were spotted onto squares of Whatman P81 phosphocellulose paper, which were then washed 1% phosphoric acid, immersed in ScintiVerse Universal LS Mixture (Fisher Scientific), and counted using a Beckman LS 9000 scintillation counter. Assays to measure A-CAT-Δ809 activity in the presence of the QQG(p)TMVMPD and QQG(p)TMSMPD peptides were carried out as described. ATPase activity was assayed using 250 μM ATP and release of inorganic phosphate (Pi) was measured using the Pi ColorLock Gold phosphate detection system (Innova Biosciences). Data from the initial linear portion of the time courses were used to calculate kinase and ATPase activity. Nucleotide binding assays using mant-ATP and mant-ADP were carried out as previously described. Results represent the mean and standard deviation of at least 3 separate experiments.

[2] = test system: T1, Nc1ncnc2c1ncn2[C@@H]1O[C@H](COP(=O)(O)OP(=O)(O)OP(=O)(O)O)[C@@H](O)[C@H]1O; test: ATPase assay by inorganic phosphate release (Pi ColorLock Gold) at 22 °C in 2 mM MgCl2, 1 mM dithiothreitol, 20 mM TES, pH 7.0.; type: biochemical
Description: as §1

[3] = test system: T2, Nc1ncnc2c1ncn2[C@@H]1O[C@H](COP(=O)(O)OP(=O)(O)OP(=O)(O)O)[C@@H](O)[C@H]1O; test: Radiometric kinase assay with [γ-32P]ATP and 20 μM myelin basic protein as phosphate acceptor (P81 paper) at 22 °C in 2 mM MgCl2, 1 mM dithiothreitol, 20 mM TES, pH 7.0.; type: biochemical
T2 construct: A-CAT: alpha-kinase domain and Thr825 autophosphorylation site of MHCK-A
Description: as §1

[4] = test system: T2, Nc1ncnc2c1ncn2[C@@H]1O[C@H](COP(=O)(O)OP(=O)(O)OP(=O)(O)O)[C@@H](O)[C@H]1O; test: ATPase assay by inorganic phosphate release (Pi ColorLock Gold) at 22 °C in 2 mM MgCl2, 1 mM dithiothreitol, 20 mM TES, pH 7.0.; type: biochemical
Description: as §1

[5] = molecular target: A-CAT-Δ809, truncated A-CAT that lacks the activating Thr825 site of autophosphorylation (Dictyostelium)
[6] = substrate: Nc1ncnc2c1ncn2[C@@H]1O[C@H](COP(=O)(O)OP(=O)(O)OP(=O)(O)O)[C@@H](O)[C@H]1O; test: Radiometric kinase assay with [γ-32P]ATP and 20 μM myelin basic protein as phosphate acceptor (P81 paper) at 22 °C in 2 mM MgCl2, 1 mM dithiothreitol, 20 mM TES, pH 7.0.; type: biochemical
Description: as §1

[7] = substrate: Nc1ncnc2c1ncn2[C@@H]1O[C@H](COP(=O)(O)OP(=O)(O)OP(=O)(O)O)[C@@H](O)[C@H]1O; test: ATPase assay by inorganic phosphate release (Pi ColorLock Gold) at 22 °C in 2 mM MgCl2, 1 mM dithiothreitol, 20 mM TES, pH 7.0.; type: biochemical
Description: as §1

[8] = ATPase activity of A-CAT and mutants (phosphate release); type: biochemical; details: 22 °C, 2 mM MgCl2, 20 mM TES, pH 7.0; Pi ColorLock Gold phosphate detection; mean and standard deviation of at least 3 separate experiments
Description: as §1

[9] = test system: myelin basic protein (MBP); test: Kinase activity of A-CAT and mutants towards myelin basic protein; type: biochemical; details: 20 μM MBP, 0.5–2 μM A-CAT, [γ-^32P]ATP; 22 °C, pH 7.0; mean and standard deviation of at least 3 separate experiments
Description: as §1

For D663A (Dictyostelium discoideum; D663A), the Km [1] was 54 ± 25 µM, the kcat [1] was 0.00105 ± 0.000117 s⁻¹ and the Km [2] was 21 ± 5 µM. The kcat [2] was 0.0167 ± 0.00333 s⁻¹.

Work on D663S (Dictyostelium discoideum; D663S) yielded a Km [3] of 29 ± 16 µM, a kcat [3] of 0.00103 ± 0.000117 s⁻¹ and a Km [4] of 31 ± 7 µM. The kcat [4] was 0.00733 ± 0.00267 s⁻¹.

Molecule Y647A (Dictyostelium discoideum; Y647A) has a Km [3] of 162 ± 38 µM, a kcat [3] of 0.00367 ± 0.000333 s⁻¹ and a kcat [4] of 0.00483 ± 0.00117 s⁻¹.

With Y647F (Dictyostelium discoideum; Y647F) the Km [3] was 65 ± 35 µM, the kcat [3] was 0.00045 ± 0.000117 s⁻¹ and the Km [4] was 64 ± 2 µM. It also gave a kcat [4] of 0.00633 ± 0.00117 s⁻¹.

For QQG[pT]MSMPD [QQG(p)TMSMPD phosphopeptide], the kinase activity of A-CAT-Δ809 assayed in the presence of the peptide; Kd from a hyperbolic curve fit [5] was 98 µM.

Work on QQG[pT]MVMPD [QQG(p)TMVMPD phosphopeptide] yielded a kinase activity of A-CAT-Δ809 assayed in the presence of the peptide; Kd from a hyperbolic curve fit [5] of 38 µM.

B1: A-CAT WT (Dictyostelium discoideum) (protein)
chain: ISSETGEMGILWEFDPIINKWIRLSMKLKVERKPFAEGALREAYHTVSLGVGTDENYPLGTTTKLFPPIEMISPISKNNEAMTQLKNGTKFVLKLYKKEAEQQASRELYFEDVKMQMVCRDWGNKFNQKKPPKKIEFLMSWVVELIDRSPSSNGQPILCSIEPLLVGEFKKNNSNYGAVLTNRSTPQAFSHFTYELSNKQMIVVDIQGVDDLYTDPQIHTPDGKGFGLGNLGKAGINKFITTHKCNAVCALLDLDVKLGGVLSGNNKKQLQQGTMVMPDILPELMPSDNT
notes: A-CAT: alpha-kinase domain and Thr825 autophosphorylation site of MHCK-A; expressed in E. coli
For B1, the Km [6] was 23 ± 5 µM, the kcat [6] was 0.0967 ± 0.00667 s⁻¹ and the Km [7] was 35 ± 4 µM. The kcat [7] was 0.0317 ± 0.00167 s⁻¹.

B2: WT: α-kinase domain and Thr825 autophosphorylation site of MHCK-A (protein)
chain: B1 chain
modifications: phosphothreonine at 612 (P-Thr612); phosphoaspartate at 663 (P-Asp663)
notes: α-kinase domain and Thr825 autophosphorylation site of MHCK-A
In the case of B2, the “ATPase Activity kcat” value [8] is reported as 0.0317 ± 0.0017 s⁻¹ and the “Kinase Activity kcat” value [9] is reported as 0.0967 ± 0.0067 s⁻¹.
